Test: soluble fraction after stress (log2 fold change); higher = more stays soluble; pooled small domains, quantitative proteomics
Settings: stress: 75 degC
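Further: 20 min heating vs room temperature control held 20 min.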

| Sequence | soluble fraction (log2) |
| --- | --- |
| HMSLEEQNGAKDRQVEAYELLLKAQRALDQEDTAGFQAAMKDLEPLSSQLDAQGQTLYHELLPFVS | -0.232 |
| HMSLGSNISRLRAEKHLSQGDLAEALDVSRQSVSKWETDGSVPDLDKLVKLSRIFGVTLDELVTGTP | -0.039 |
| HMSLIHEQSLKEIRIFINNLPESLRTAFTLREQDGLSYEEISKITDTPIGTVRSRIFRARESILEHINEEL | -2.25 |
| HMSLLTPLEEARIVIEELIIPQKLTLDLLPQNSQIRKLQHEIINHYRLKGISIGDGKNRRVRIYS | -0.204 |
| HMSLMHEESLKNIRRFINSLPESLRTAFTLREQDGLSYEEIGVITETPIGTVRSRIFRAREAILEHIKKEL | -2.39 |
| HMSLMLYVEDVDTAFKKAIELGATEIRPVHDQFYGDRAGTLQDPFGHIWIIGTHKEDVSDEELNNRIGNI | 0.104 |
| HMSLPNNLIEQLQDPEPKARRRAVRRLAATRDPSAIPLLRNVYLQDGDDRVRDAAEAALVQFRAMQHN | -0.112 |
| HMSLPTYVQISEAIARRITAGQWLDGERLPPERTMAAEFGVAVGTLRKALSRLQDQKLLRRLQGSGNYINI | -1.67 |
| HMSLREKNKARTRTAILNAARDLAKQGQWDAITTRQIADAAGVSYQTLYNYYPSKASILVEMLL | -2.03 |
| HMSLSDDIAQTLRQLGFDRDVSETLANDVLPAMPTRQDVIDLLGTLGIEKHVAADFANFVVLN | -0.964 |
| HMSLSEYLSAPVLEGQRNHALFSAVMQAREQGWDEWQIRTTIGAKAEADGLRHAEIAATIRSAMSREITP | -0.314 |
| HMSLSIKINHESVGLRLDQFLQEHYYKQQSRSYVQHAIKEGYILVNGQSVKNGYMLKLDDLIELEAI | -4.5 |
| HMSLSNMIGKNIQWTHVTKTKDAEGNPKTNSETFAGNVRGVKVLNGKPMVVAQDAKGKLHEVEVSEIEAIA | 0.0953 |
| HMSLTEDELFHALTIYANREGINIGATELKYLLTHYARNLGKLIELINQVSQAATMQKKPITIPLIKHS | -0.411 |
| HMSLTGFYNLTFKQADRLSVIDEAGEEVYKQAIAMGSTTKTIDLSALNAGVYFIRIYNGEVIAQEKIVLN | -0.933 |
| HMSLTYTGKFILNHNNIDQSSFNINIYLVNKQTIIQITKPFYGNVLNIKFNEENDLIISPKQFS | -0.369 |
| HMSMDPYTVLGVNKSSTDSQIKNAYKNLAKQHHPDRGGNEAKFKEISTAYEQIKTAEKRQQYDMSQQF | 0.604 |
| HMSMFAQQLKDLRKKIPGLTQTDMAKKLGIAKTTYASYEQGKRTPDIETQNKIADFFNVSLDYLHG | -0.302 |
| HMSMFSEILRTLRKAKGLTQRELAGHLGVTQQMVAKWEKGQSTPGPDQLTRMAELLEVSTDTLLGR | -0.366 |
| HMSMNSWFVEKERDNTRIDKFLNEQMADISRSYIQKLIKDDLVTVDLRPVKANYKVKEGDRVEVTLPEPV | 0.000708 |
| HMSMPTITLQHYKRGSHYYASIIETFRDPVTRKNSSRTLEALGDISEKMKEDPNYLQSLKDRVKALRSD | -0.899 |
| HMSMSLQFLSRRIRLQREKRGLKQHDIAHALQISPQAVSKWERGENAPDIALLRPLAGLLGVSIDWLMGGD | -3.27 |
| HMSNEEEIEGLVSKVLDNNPEIVERIRSGEDKLISYLVGEVMKQSSSSLNPGIVKEIIVNKTI | 0.091 |
| HMSNEITVPDLSGMSLEELETILSDRSLSYEIIDSIYNSTAKKGTVSSQDPLPDAKVKSGRTIYITVVSKL | -1.85 |
| HMSNENIDQDELQAIIQKVLASNQDAVAKYKAGKTAVIGFLIGQVMRQLNKKIDVALAKKTLLVFLEK | -1.42 |
| HMSNETKSAILNFAEKHHDFNIDDLFESLSKSMDINRSSLLWHLFKLVNSNVLIRTGRGMYAKV | -2.62 |

| Sequence | soluble fraction (log2) |
| --- | --- |
| HMSNEVSYSDFVRSVESDEVNAVTLDGEQIRFVGNDGQTYSVIKPADAQITQLLIDNNVTVRAEQQ | 0.123 |
| HMSNEYLMPNLIGMSWDEAKSKYSQYMTLVPEQEWSEVTKDQIFDQEYPEGRKVKIGTEVTVKVSMGI | -0.654 |
| HMSNFGALLRMRRLEAGLSYRGLAEQSGLARATLVNLEQGLTKPSPLTMRRLASVKALRLTEL | -3.17 |
| HMSNFGERLRALRQDRQMTLQQASKVTGVAQSTLSKMENNQLSPTFNLMQKLAIGLGIDMPQLFAPVK | -0.642 |
| HMSNGEWQQGSDGRWWYKFSDGTYPKNKVETIGGKKYGFDSEGWMLANTTKEFSGTTYSFGADGVATS | 0.223 |
| HMSNHYETLGVEQTASVDEIKKAYRRLSLQYHPDRNTTSDAVGKFQKINDAHEILSDKQSRTEYDMQLK | 0.0273 |
| HMSNIQLAANLQRLRKDHHFTQTQFSKKLNISRQAYSNYETGKRIPDLDIIIRIANIYHISLENLL | -0.305 |
| HMSNKYYETILDWFKSQIMSGELKEGDTIPSERELATRFGVSRVPVREALRILEYIGIVSNTADGMTVQKV | -1.72 |
| HMSNLKKRRLEKNLTLDDVGKLVGVSAATISRWESGDIENMRSDKIVKLANALEISPAVILGW | -0.0179 |
| HMSNLLKNILDVLEKEGPLKARKIALLLDSTRTTITHTTINSELYKALDLEGLTKNEQNIWSYVT | 0.145 |
| HMSNLVEVPAVIGRMKEDAITMLISAGLEPAVTYDEYPLVKENLVADQSVAPGQKVEKGSFVTITVSRS | -0.0726 |
| HMSNMESLIGREATVIEMIPAEDVGRVKIDGDEWQAVLAREDDNEPRRDIQVGEKVIIVSYDSIILTVKTK | 0.0742 |
| HMSNNENSILEKLNSFSGKKIKVSHTIGSLAARLDEYPKIKMWLYKRIRENSINEQAYKYLIFIIERKVR | -1.34 |
| HMSNPADDVVDLLRQLRLPHMRAAAPELLATAKAQRWDPAEAIRALLTEELAGRQASSINARRK | -0.477 |
| HMSNPPIRIGKKALHELLTTWLSLLSRDGVAYLVVQKNLGADSLTAWLRDQGFPSEKIASKKGFRIIEVH | -0.315 |
| HMSNRDNPVVLDFKKVKSTEQLDNILEEYIRENFEGYTVKGRMFSSDEGKFIIALALKDDDGKRALVYFDV | -1.04 |
| HMSNRIDKIKLNHWLNIRKTSLDVLNNLLSKHLNHKINFENLENLDEQAIEKISEVLSIPKNKLLINDDVP | -0.219 |
| HMSNTVEDLIDDIGTVTKDSKDKIDAARKAYDGLTEDQKKLVPDSVLKTLTDAEAAYAKLTK | 0.567 |
| HMSNWYGTVVKIQPRPNAQAADTAVVKLLDGSEHRFPVWADHLTTIEVGSRLKKLSGGWDPVLMDPEETF | -0.669 |
| HMSNWYKNNETDQIWWKDTPDSVGEWLFSFDKKQVFNMFADYPHNLTPEQKKIFDEENPEWSDRP | -0.351 |
| HMSNYPYLLRTYEGKLAVFTDDLVQPDLVFDVYVRTLPELDQQQLSRGIRVKTYDELTSMIEDYI | -2.22 |
| HMSPAVEDYLEQIHNLIAQKGYARVVDIAGNLKISQASVTNMIQRMDADGLVVYERYRGVVLTETGRK | -1.28 |
| HMSPDLNEVEEKVFRALNGVESMHVNKLGIELNLPVSELFFTLLELEMKNVVKALPGGMYKL | -2.26 |
| HMSPFYILDEVEAALDDTNLGRLLEIYEELRENSQLLVITHQKRTMEVGDALYGVTMRGDGVSAVISQRLR | 0.306 |
| HMSPKYLELVRWINTQIQEKKLTAGQKMYSENELKEMFGVSRQTVRHAISVLEGEGMIRRVRGSGTYINDN | -2.42 |
| HMSPLALLTPRELDILRAMTAGASNKEIARQFAIAETTVKIHVQHILRKLDVTTRVHAAVMASESGL | -3.05 |

| Sequence | soluble fraction (log2) |
| --- | --- |
| HMSPPALAVQRDGSNVQISWPGAEEGWRLESSAEPSGAAWDLIAQNPTPVGGRWTVSLTEPTGRRFYRLVK | -0.0804 |
| HMSPSLVEAMRLRMYEMGLNQAKLSELLGVSPSRVSDYLTGRSEPTLKVARDISRKLNIDASIVLG | -1.68 |
| HMSPSQFRSKSLLVEINFASRQMDGEILQGDYAGKRLSELTEAEVQELTAWLKQSDRESFVLLQAYLLRSG | -2.46 |
| HMSPSSPNQILGQYPKTKNDIILSSGRYGPYLKYNKKNYSLGNNISVEKLSLEEAVKIIDLKDKK | -0.291 |
| HMSPTDKATVNVYALNVRTGPGTNYKVLGSVIKGTELQVLGSSGKWLKVKYGNREAYVAGWLVK | -2.85 |
| HMSPTEQEKIGLFIKKLREEKNLTQEAFASLLKTSQSAVARIESGNQNITIEQLMKIGEVLNHNIVSI | -0.212 |
| HMSQDPLETYYPQWSAAVKQSNPDAEIIRDTDGKYYVEGMTKNRVAVIYENPHLVRLVNATTNVHVE | 0.0377 |
| HMSQDTLIGRVGVIVIGQARTGSPAQVRVKDGFGQTHYVMAEPDSEGVLKQGEAVLLVSLEGNTFKAILNP | -2.41 |
| HMSQDVLLKRSGDQIEVKITEVGEDYLKYKKKGFENGPDFKINTSDVFMVTFANGEKMMFEES | -0.033 |
| HMSQEAKLAMPVTDLRLSARTLNALELANIRTVRDLVSHTEEQLLELRNFGETALAEVKEKLAALGLRLGM | 0.0588 |
| HMSQESIMPNLVGSTEDEAKAIAVEYGFQLNVISRVNNSQYPAGVIIDQNVDEGVRIKAGYPVGVTIS | -0.237 |
| HMSQIAENNQKYVGTIQKVLVEGTSKNNDDMLTGRTDSNKVVIFEGDKKLIGNMVELKIVSEHMWYLKGEL | -0.0812 |
| HMSQISKLWRPSEDVTEILTRSGMDSEFLEGLIPEFIIYWSERADVLVSYNSKFIEHARLKWAQHSAEIKT | -4.48 |
| HMSQLLHELLAHVLKDRIISGEWPAGSRIMSEHALQERYGVSRGTVRRALAQLVQEGLLVQRKGKGTFVTR | -2.59 |
| HMSQLVTGVLRNLNDISEKIAAGKAVPEMLGRLENMQQMIANLKGNEGLIKSISILTRSAQDALR | -0.484 |
| HMSQPLYWQIRRMVIDHDDANDVLQNTFIKAWSNIGSFRGDAKFSTWLYKIAVNESITFINKKKVQN | -0.44 |
| HMSQPYFELAAADMEALRNALSTIREIESVVLSGKIFHVEVREDLDPGTMNKLAFERGITLTHLVKKKN | -2.89 |
| HMSQRINLNSASIEDMQSLDISNEKIDSIIDYRNRYGNIHNIYELLKIPGITIGDIHSIRNAVTVEIPH | -0.104 |
| HMSQSLSGWAAKDLEVKSGADASYRTVGRLPKGSKVSGKIINGYLHIEFDGSMRYVPVSGISKTE | -0.6 |
| HMSQSYHLADRGQSLGTLDYQAVLVGLATGRLSPDTLSWQEGEAGWVALRQRPEFASGVSAVASL | 0.404 |
| HMSRAHTELEEKLLTMLEENDMTLPMRVISNIASRIEGIIIPEEKILEVLKKSYDRYREHQMD | -0.267 |
| HMSRARSRQTSMLEAVAGLGPARRRALLKQFGGLQGVLRAGIEDLSRAPGIGPALAQAIFEHLHPGA | -0.482 |
| HMSREQARRFYFDTWAKHRASQPLTDLEKIALTVMLLHPEYHSLLDKPDHYVDKDYSPEAGQTNPFLHM | -1.72 |
| HMSRIDRKGLTSQIVNHLSKNPGKNFTLKQFFRNLKLNTHPLKMLAVDVLNKLLDTNFITRNEDGEFFLKA | 0.154 |
